# According to US20250361297A1, “ANTI- SIGLEC-15 BINDING MOLECULES AND METHODS OF USE” (ADAPTAM THERAPEUTICS, S.L., priority 2024, published 2025):
# T1: THP-1 cells overexpressing human Siglec-15 (Homo sapiens, UniProt Q6ZMC9)
# T1 construct: Human full-length Siglec-15 and CD19 genes were synthesized and cloned into the pLV-MSCV lentiviral vector; His; expressed in transfected cells; host or cells: THP-1 (lentiviral overexpression, 'THP-1 S15 OE')
# T1 sequence (Q6ZMC9 20-328): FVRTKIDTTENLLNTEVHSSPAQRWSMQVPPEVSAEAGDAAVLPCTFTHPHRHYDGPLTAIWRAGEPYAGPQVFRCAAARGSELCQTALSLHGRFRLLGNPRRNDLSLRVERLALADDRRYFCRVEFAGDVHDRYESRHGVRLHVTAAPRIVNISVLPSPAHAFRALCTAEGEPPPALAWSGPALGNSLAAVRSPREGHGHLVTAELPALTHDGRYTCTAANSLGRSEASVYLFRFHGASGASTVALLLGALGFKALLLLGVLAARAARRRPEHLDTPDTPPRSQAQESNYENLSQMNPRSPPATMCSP
# T2: recombinant human Siglec-15 protein (Homo sapiens, UniProt Q6ZMC9)
# T2 construct: purchased Bonopusbio CW70-50 ug
# T2 sequence (Q6ZMC9 20-263 limits assumed): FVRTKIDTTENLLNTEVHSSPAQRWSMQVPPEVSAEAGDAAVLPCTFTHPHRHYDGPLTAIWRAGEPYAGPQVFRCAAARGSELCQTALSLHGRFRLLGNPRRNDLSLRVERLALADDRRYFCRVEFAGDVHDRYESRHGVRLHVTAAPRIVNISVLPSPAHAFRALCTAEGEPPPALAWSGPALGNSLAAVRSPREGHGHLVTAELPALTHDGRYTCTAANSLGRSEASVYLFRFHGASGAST
# Target: T1, THP-1 cells overexpressing human Siglec-15
# Assay: Binding of anti-Siglec-15 ADCs to THP-1 S15+ cells (flow cytometry)
# Details: relative to Trastuzumab-based ADC negative control
# Protocol: Binding of anti-Siglec-15 ADCs to THP-1 S15+ cells: 50,000 cells/well of THP-1 S15 OE cells were added to a round bottom 96 well plate, centrifuged at 450×G for 5 minutes and the supernatant discarded. Human anti-siglec-15 IgG ADCs were prepared (starting at 198 nM, 3-fold serial dilution in staining buffer) and the cells were resuspended in 100 μl of ADC. Cells were incubated for 40 minutes on ice and 100 μl of staining buffer were added to each well, followed by centrifugation at 450×G for 5 minutes and supernatants were discarded. The secondary antibody was prepared (anti-human IgG-PE at 1:500 dilution) and added 100 μl to each well. Cells were incubated for 40 minutes on ice and 100 μl of staining buffer were added to each well followed by centrifugation at 450× G for 5 minutes to then discard the supernatant. Cells were resuspended in 150 μl of staining buffer and acquired in a flow cytometer.
row,Molecule,binding capacity to THP-1 cells overexpressing human Siglec-15
1,ZLA-1243-E01-MMAE (conjugate) VH: QVQLVQSGGGLVQPGRSLRLSCAASGFTFDDYAMHWVRQAPGKGLEWVSGISWNSGSIGYADSVKGRFTISRDNAKNSLYLQMNSLRAEDTALYYCAKGLWPSYDLDAFDIWGQGTMVTVSS VL: QSALTQPASVSGSPGQSITLSCTGTSSDVGAYNFVSWYQQHPGTAPKLMIYEVSNRPSGVSDRFSGSKSGNTASLTISGLQAEDEADYYCSSYTSTIPPFVFGTGTKVTVL,increased binding capacity

# Target: T2, recombinant human Siglec-15 protein
# Assay: BIACORE surface plasmon resonance binding affinity
# Details: SPR; antibody as ligand, human Siglec-15 as analyte; 1:1 Langmuir model
# Text: Binding affinity determination of anti-Siglec-15 monoclonal antibodies using BIACORE surface plasmon resonance: The purified anti-Siglec-15 monoclonal antibodies (mAbs) were characterized for binding affinity and binding kinetics by Biacore T200 system (GE healthcare, Pittsburgh, PA, USA). Anti-Siglec-15 antibodies were covalently linked to a CM5 chip (carboxy methyl dextran coated chip, GE healthcare, Cat #BR-1005-30) via primary amines, using a standard amine coupling kit provided by Biacore (GE healthcare, Pittsburgh, PA, USA). Un-reacted moieties on the biosensor surface were blocked with ethanolamine. Then, serially diluted recombinant human Siglec-15-his protein (Bonopusbio, CW70-50 ug), 2-fold serial dilution in HBS-EP buffer starting at 80 nM, were respectively flown onto the chip at a flow rate of […]. The antigen-antibody association kinetics was followed for 2 minutes, and the dissociation kinetics was followed for 10 minutes. The association and dissociation curves were fit to a 1:1 Langmuir binding model using BIAcore evaluation software. The dissociation rate (kd) and association constant (ka) rate constants were obtained using Evaluation Software. The equilibrium dissociation constant (KD) was calculated from the ratio of kd over ka.
Molecule,ka [M⁻¹ s⁻¹],kd [s⁻¹]
"S15B1-VH1 + VL2: humanized S15B1 antibody, humanized VH1 (SEQ ID NO: 103) with humanized VL2 (antibody, V domains shown) VH: QVQLVQSGAEVKKPGASVKVSCKASGYAFSSSWMNWVRQAPGQGLEWIGRIYPGHGETNYNGKFKDRVTMTADTSTSTVYMELSSLRSEDTAVYFCARVDNSDPYYFDYWGQGTTVTVSS VL: DIVLTQSPASLAVSPGQRATITCRASKSVSTSGYSYMHWYQQKPGQPPKLLIYLASNLESGVPARFSGSGSGTDFTLTINPVEAEDTATYYCQHGRELPFTFGGGTKLEIK",3.54e+06,0.000563
"S15B1-VH4 + VL2: humanized S15B1 antibody, humanized VH4 with humanized VL2 (antibody, V domains shown) VH: QVQLVQSGAEVKKPGASVKVSCKASGYAFSSSWMNWVKQAPGQGLEWIGRIYPGHGETNYNGKFKDRATMTADKSTSTVYMELSSLRSEDTAVYFCARVDNSDPYYFDYWGQGTTVTVSS VL: DIVLTQSPASLAVSPGQRATITCRASKSVSTSGYSYMHWYQQKPGQPPKLLIYLASNLESGVPARFSGSGSGTDFTLTINPVEAEDTATYYCQHGRELPFTFGGGTKLEIK",1.69e+06,0.000234
"S15B1-VH3 + VL2: humanized S15B1 antibody, humanized VH3 with humanized VL2 (antibody, V domains shown) VH: QVQLVQSGAEVKKPGASVKVSCKASGYAFSSSWMNWVKQAPGQGLEWIGRIYPGHGETNYNGKFKDRATMTADTSTSTVYMELSSLRSEDTAVYFCARVDNSDPYYFDYWGQGTTVTVSS VL: DIVLTQSPASLAVSPGQRATITCRASKSVSTSGYSYMHWYQQKPGQPPKLLIYLASNLESGVPARFSGSGSGTDFTLTINPVEAEDTATYYCQHGRELPFTFGGGTKLEIK",4.49e+06,0.000293
"S15B1-VH2 + VL2: humanized S15B1 antibody, humanized VH2 with humanized VL2 (antibody, V domains shown) VH: QVQLVQSGAEVKKPGASVKVSCKASGYAFSSSWMNWVRQAPGQGLEWIGRIYPGHGETNYNGKFKDRVTMTADTSTSTVYMELSSLRSEDTAVYFCARVDNSDPYYFDYWGQGTTVTVSS VL: DIVLTQSPASLAVSPGQRATITCRASKSVSTSGYSYMHWYQQKPGQPPKLLIYLASNLESGVPARFSGSGSGTDFTLTINPVEAEDTATYYCQHGRELPFTFGGGTKLEIK",3.44e+06,0.000326
"S15B1-VH1 + VL1: humanized S15B1 antibody, humanized VH1 (SEQ ID NO: 103) with humanized VL1 (antibody, V domains shown) VH: QVQLVQSGAEVKKPGASVKVSCKASGYAFSSSWMNWVRQAPGQGLEWIGRIYPGHGETNYNGKFKDRVTMTADTSTSTVYMELSSLRSEDTAVYFCARVDNSDPYYFDYWGQGTTVTVSS VL: DIVLTQSPASLAVSPGQRATITCRASKSVSTSGYSYMHWYQQKPGQPPKLLIYLASNLESGVPARFSGSGSGTDFTLTINPVEAEDTANYYCQHGRELPFTFGGGTKLEIK",3.35e+06,0.000455
"S15B1-VH4 + VL1: humanized S15B1 antibody, humanized VH4 with humanized VL1 (antibody, V domains shown) VH: QVQLVQSGAEVKKPGASVKVSCKASGYAFSSSWMNWVKQAPGQGLEWIGRIYPGHGETNYNGKFKDRATMTADKSTSTVYMELSSLRSEDTAVYFCARVDNSDPYYFDYWGQGTTVTVSS VL: DIVLTQSPASLAVSPGQRATITCRASKSVSTSGYSYMHWYQQKPGQPPKLLIYLASNLESGVPARFSGSGSGTDFTLTINPVEAEDTANYYCQHGRELPFTFGGGTKLEIK",4.1e+06,0.000385
"S15B1-VH2 + VL1: humanized S15B1 antibody, humanized VH2 with humanized VL1 (antibody, V domains shown) VH: QVQLVQSGAEVKKPGASVKVSCKASGYAFSSSWMNWVRQAPGQGLEWIGRIYPGHGETNYNGKFKDRVTMTADTSTSTVYMELSSLRSEDTAVYFCARVDNSDPYYFDYWGQGTTVTVSS VL: DIVLTQSPASLAVSPGQRATITCRASKSVSTSGYSYMHWYQQKPGQPPKLLIYLASNLESGVPARFSGSGSGTDFTLTINPVEAEDTANYYCQHGRELPFTFGGGTKLEIK",3.8e+06,0.000473
"S15B1-VH3 + VL1: humanized S15B1 antibody, humanized VH3 with humanized VL1 (antibody, V domains shown) VH: QVQLVQSGAEVKKPGASVKVSCKASGYAFSSSWMNWVKQAPGQGLEWIGRIYPGHGETNYNGKFKDRATMTADTSTSTVYMELSSLRSEDTAVYFCARVDNSDPYYFDYWGQGTTVTVSS VL: DIVLTQSPASLAVSPGQRATITCRASKSVSTSGYSYMHWYQQKPGQPPKLLIYLASNLESGVPARFSGSGSGTDFTLTINPVEAEDTANYYCQHGRELPFTFGGGTKLEIK",3.73e+06,0.000257
